These results are taken from patent publication US20220363754A1 (SHANGHAI JUNSHI BIOSCIENCES, published 2022).

In one test the target is T1, Cyno TIGIT-Fc (cynomolgus monkey, UniProt A0A7N9I9V4 89-209).
T1 construct: extracellular domain; the whole named entry is XP 015300912.1; also called cynomolgus monkey TIGIT; cynoTIGIT-ECD; not shown: Fc part is not described
Briefly: SPR (Biacore T200), antibody captured by anti-human Fc, antigen in solution, 1:1 model. The method, then:
(§1) An S series CM5 chip (GE) was first loaded onto the instrument, and 40 μg/mL of goat anti-human Fc fragment antibody (Jackson ImmuneResearch) dissolved in sodium acetate-acetic acid buffer (pH 5.0) was ready to be coupled to the chip surface. The buffer used for the detection of antibody-antigen binding was HBS-EP+ from GE Healthcare. The antibodies hu3 and hu20 were each diluted to 8 μg/mL and captured on the chip surface. […] The resulting data were analyzed with a 1:1 binding model by using Biacore T200 Evaluation Software 3.0.
Background: Surface plasmon resonance follows binding to a sensor surface in real time, without labels.

The target of the next test is T2, hTIGIT-Fc (human, UniProt Q495A1 24-155).
T2 construct: range 24-155; also called human TIGIT; not shown: Fc part of the Biacore antigen is not described (possibly the murine IgG2a Fc of hTIGIT-ECD-mFC)
T2 sequence (looked up): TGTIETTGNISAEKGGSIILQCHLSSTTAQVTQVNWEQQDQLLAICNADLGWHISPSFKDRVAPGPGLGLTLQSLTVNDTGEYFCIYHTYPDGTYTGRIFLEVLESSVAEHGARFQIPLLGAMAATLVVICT
The test is described as above. On the procedure:
as §1

Test [1] concerns the target T3, recombinant protein hTIGIT-ECD-mFC (human; mouse, UniProt Q495A1 24-155).
T3 construct: range 24-155; Expressed in 293E cells; also called human TIGIT-ECD-mFc; not shown: murine IgG2a Fc domain of the vector MX2-mFc
T3 sequence (looked up): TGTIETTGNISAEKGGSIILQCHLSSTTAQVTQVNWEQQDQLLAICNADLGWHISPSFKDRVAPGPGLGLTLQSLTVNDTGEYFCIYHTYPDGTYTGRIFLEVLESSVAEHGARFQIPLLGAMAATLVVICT
Briefly: ELISA, human TIGIT-ECD-mFc coated at 0.5 ug/mL, anti-IgG4-HRP. On the procedure: (§2) The solution in wells was then discarded, and the wells were washed 3 times with a washing buffer and blocked for 60 minutes with PBS containing 2% BSA. After the plate was washed 3 times with the washing buffer, humanized antibody dilutions at different concentrations were added. The antibodies were incubated at 37° C. for 60 minutes, and then the plate was washed 3 times with the washing buffer and added with 5000-fold diluted anti-IgG4-HRP. The system was incubated at 37° C. for 30 minutes, and then washed three times with the washing buffer and added with 100 μL of TMB substrate for color development. The system was incubated at room temperature for 30 minutes, and the reaction was then terminated with 100 μL of 2 M hydrochloric acid solution. The absorbance at 450 nm was measured by a plate reader.
On the technique in general: ELISA stands for enzyme-linked immunosorbent assay.

The target in test [2] is T4, hTIGIT (FACS blocking assay of Example 10) (human, UniProt Q495A1 22-141, limits assumed).
T4 construct: The protocol names only PVR-mFC and 293F-hPVR cells; which of them should be TIGIT cannot be told
T4 sequence (looked up): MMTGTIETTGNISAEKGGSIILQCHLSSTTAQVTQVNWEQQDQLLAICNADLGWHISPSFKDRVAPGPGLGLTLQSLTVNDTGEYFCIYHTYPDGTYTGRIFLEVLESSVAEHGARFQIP
Briefly: competitive FACS, antibody titrated from 30 ug/mL in 3-fold steps, blocking of the binding of hTIGIT to its ligand hPVR on the cell surface, MFI; unit taken from the axis Log[concentration] ng/mL. The method, then: Briefly, antibody dilutions at different concentrations (an initial concentration of 30 μg/mL, 3-fold titration) were each mixed with PVR-mFC (1 ug/mL, 50 μL) and incubated for 30 minutes at room temperature. The mixture was then incubated with cell suspension (stable 293F-hPVR cell line, 2.5×10⁴ cells/well) for 15 minutes at 37° C. After 3 times of elution with PBS, 100 μL of goat anti-human IgG-PE antibody was added, and the system was incubated for 30 minutes in the dark. After 3 times of elution with PBS, detection was performed by FACS. Viable cells were gated on the basis of FSC/SSC, and their geometric mean fluorescence intensity was measured.

Test [3] has as its target T5, human TIGIT on Jurkat reporter cells (Jurkat/NFAT-Luc/hPD-1-hTIGIT) (human, UniProt Q495A1 22-244).
T5 sequence (looked up): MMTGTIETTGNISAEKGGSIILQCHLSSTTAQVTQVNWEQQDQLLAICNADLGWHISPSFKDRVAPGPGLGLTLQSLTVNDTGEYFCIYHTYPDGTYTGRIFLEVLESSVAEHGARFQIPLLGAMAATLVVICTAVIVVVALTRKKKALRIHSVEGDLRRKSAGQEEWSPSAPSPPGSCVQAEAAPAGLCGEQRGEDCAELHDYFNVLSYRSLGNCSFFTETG
Briefly: cell-based or functional assay.

The target of test [4] is T5, human TIGIT on Jurkat reporter cells …. Nature of the test: cell-based or functional assay. This is another data set of the same source.
Test [5] deals with T3, recombinant protein hTIGIT-ECD-mFC. Nature of the test: ELISA, human TIGIT-ECD-mFc coated at 1 ug/mL, anti-IgG4-HRP. The method, then:
as §2, with “chimeric” for “humanized”

T1 sequence (A0A7N9I9V4 entry or part of it): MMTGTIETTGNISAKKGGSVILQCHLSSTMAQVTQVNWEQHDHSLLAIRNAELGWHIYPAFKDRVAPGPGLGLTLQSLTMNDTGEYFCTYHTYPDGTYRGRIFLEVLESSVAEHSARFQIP

B1: humanized antibody hu3 (antibody, human IgG4 S228P, kappa, V domains shown)
VH: QVQLVQSGAEVKKPGASVKVSCKTSGYAFTEYTMHWVRQAPGQGLEWMGGINPNTGGTTYNQKFQGRVTLTVDKSSSTAYMELSRLRSDDTVVYYCAKLLRLMYYFDYWGQGTLVTVSS
VL: DIVMTQSPDSLAVSLGERATINCKASQDVRTAVAWYQQKPGQPPKLLIYSASYRYTGVPDRFSGSGSGTDFTLTISSLQAEDVAVYYCHQHYITPWTFGGGTKVEIKR
notes: Humanized from 2O18
A word on the Kd: it is the equilibrium constant for the complex coming apart. High values mean a looser complex, low ones a tighter complex. As usually defined, the koff is the first-order rate constant of dissociation. Higher therefore signals a short-lived complex. The term kon denotes the second-order rate constant of association. Broadly, the EC50 is the concentration giving half of the maximal effect. By IC50 is commonly meant the concentration that gives 50% inhibition. Read a low IC50 as greater potency in that assay. In the test with Cyno TIGIT-Fc, B1 registered a Kd of 1.42 nM, a koff of 0.0003 s⁻¹ and a kon of 211000 M⁻¹ s⁻¹. In the test with hTIGIT-Fc, this molecule displayed a Kd of 0.13 nM, a koff of 0.000121 s⁻¹ and an on-rate (kon) of 935000 M⁻¹ s⁻¹. The EC50 in test [1] turned out to be 0.0232 µg/mL. This molecule came in with an IC50 in test [2] of 0.0693 µg/mL. In test [3], the “EC50, luciferase reporter gene experiment (T cell activation)” value (from here on “EC50 … (T cell activation)”) is 0.14 µg/mL.

B2: humanized antibody hu20 (antibody, human IgG4 S228P, kappa, V domains shown)
VH: QVQLVQSGAEVKKPGASVKVSCKTSGYAFTEYTMHWVRQAPGKGLEWMGGINPNTGGTTYNQKFQGRVTLTVDKSSSTAYMELSSLRSEDTVVYYCAKLLRLMYYFDYWGQGTLVTVSS
VL: DIQMTQSPSSLSASVGDRVTITCQASQDVRTAVAWYQQKPGKAPKLLIYSASYRYTGVPSRFSGSGSGTDFTFTISSLQPEDIATYYCHQHYITPWTFGGGTKVEIKR
notes: Humanized from 2O18
As for B2, in the test with Cyno TIGIT-Fc, the Kd worked out at 1.45 nM, the koff was 0.000329 s⁻¹ and the kon stood at 226000 M⁻¹ s⁻¹. In the test with hTIGIT-Fc, this molecule registered a Kd of 0.209 nM, a koff of 0.000163 s⁻¹ and a kon of 777000 M⁻¹ s⁻¹. The EC50 in test [1] stood at 0.0378 µg/mL. The IC50 in test [2] was found to be 0.0587 µg/mL. In addition, the “EC50 … (T cell activation)” value in test [3] turned out to be 0.0424 µg/mL.

B3: humanized antibody hu62 (antibody, V domains shown)
VH: QVQLVQSGAEVKKPGASVKVSCKASGYTFTNYWILWIRQAPGQGLEWMGDIYPGGHYTNYNEKFQGRVTLTADTSSSTAYMELSSLRSEDTAVYYCTRYYGPYAMDYWGQGTLVTVSS
VL: DIQMTQSPSSLSASVGDRVTITCRSSQSLLYNSNQKNYLAWYQQKPGKAPKLLIYWASTGESGVPSRFSGSGSGTDFTLTISSLQPEDFATYYCQQYYSYPFTFGQGTKVEIK
notes: Humanized from 23O20; detected with anti-IgG4-HRP in the ELISA, constant regions not otherwise stated
Turning to B3, the EC50 in test [1] is 0.0086 µg/mL. In test [3], the “EC50 … (T cell activation)” value is 0.109 µg/mL.

B4: humanized antibody hu69 (antibody, V domains shown)
VH: QVQLVQSGAEVKKPGASVKVSCKASGYTFTNYWILWIRQAPGQGLEWMGDIYPGGHYTNYNEKFQGRVTLTADTSSSTAYMELSRLRSDDTAVYYCTRYYGPYAMDYWGQGTLVTVSS
VL: DIVMTQSPLSLPVTPGEPASISCRSSQSLLYNSNQKNYLAWYLQKPGQSPQLLIYWASTGESGVPDRFSGSGSGTDFTLKISRVEAEDVGVYYCQQYYSYPFTFGQGTKLEIK
notes: as for B3
Regarding B4, the EC50 in test [1] was 0.0107 µg/mL. Further, in test [3], the “EC50 … (T cell activation)” value turned out to be 0.103 µg/mL.

B5: humanized antibody hu81 (antibody, V domains shown)
VH: QVQLVQSGAEVKKPGASVKVSCKASGYTFTNYWILWIRQAPGQGLEWMGDIYPGGHYTNYNEKLQGRVTLTADTSSSTAYMELRSLRSDDTAVYYCTRYYGPYAMDYWGQGTLVTVSS
VL: DIVMTQSPLSLPVTPGEPASISCRSSQSLLYNSNQKNYLAWYLQKPGQSPQLLIYWASTGESGVPDRFSGSGSGTDFTLKISRVEAEDVGVYYCQQYYSYPFTFGQGTKVEIK
notes: as for B3
With B5, the EC50 in test [1] stood at 0.00983 µg/mL. Also, the “EC50 … (T cell activation)” value in test [3] was found to be 0.0884 µg/mL.

B6: hybridoma antibody 2O18 (antibody, V domains shown)
VH: EVQLQQSGPELVKPGASVKISCKTSGYAFTEYTMHWVKQSHGKSLEWIGGINPNTGGTTYNQKFKGKATLTVDKSSSTAYMEFRSLTSEDSAVYYCAKLLRLMYYFDYWGQGTTLTVSS
VL: DIVMTQSHKFMSTSVGDRVSITCKASQDVRTAVAWYQQKPGQSPKLLIYSASYRYTGVPDRFTGSGSGTDFTFTISSVQAEDLALYYCHQHYITPWTFGGGTKLEIK
As for B6, in test [4], the “RLU fold change, NFAT-luciferase reporter (Jurkat hPD-1/hTIGIT + CHO hPD-L1/hPVRL2), with JS001” value was 3.3 fold and the “RLU fold change, NFAT-luciferase reporter, antibody alone” value is 6.3 fold.

B7: chimeric antibody ch1 (antibody, human IgG4, V domains shown)
VH: EVQLQQSGPELVKPGASVKISCKTSGYAFTEYTMHWVKQSHGKSLEWIGGINPNTGGTTYNQKFKGKATLTVDKSSSTAYMEFRSLTSEDSAVYYCAKLLRLMYYFDYWGQGTTLTVSS
VL: DIVMTQSHKFMSTSVGDRVSITCKASQDVRTAVAWYQQKPGQSPKLLIYSASYRYTGVPDRFTGSGSGTDFTFTISSVQAEDLALYYCHQHYITPWTFGGGTKLEIK
notes: IgG4 chimeric antibody; also called 2O18-ch-HC / 2O18-ch-LC
On to B7, for which the EC50 in test [5] came to 0.0325 µg/mL. Further, the “EC50 … (T cell activation)” value in test [3] came out at 0.0766 µg/mL.

B8: chimeric antibody ch4 (antibody, human IgG4, V domains shown)
VH: QVQLQQSGDELVRPGTSVKVSCQAAGYTFTNYWILWIKQRPRHGLEWIGDIYPGGHYTNYNEKFKGKATLTADTSSSTAYMQLNSLTSEDSAIYYCTRYYGPYAMDYWGQGTSVTVSS
VL: DIVMSQSPSSLPVSVGEKVTMSCKSSQSLLYNSNQKNYLAWYQQIPGQSPKLLIYWASTGESGVPDRFTGSGSGTDFTLTISSVKAEDLAVYYCQQYYSYPFTFGSGTKLEIK
notes: IgG4 chimeric antibody; also called 23O20-ch-HC / 23O20-ch-LC
Turning to B8, in test [5], the EC50 was 0.00893 µg/mL. Moreover, the “EC50 … (T cell activation)” value in test [3] turned out to be 0.104 µg/mL.

B9: hybridoma antibody 23O20 (antibody, V domains shown)
VH: QVQLQQSGDELVRPGTSVKVSCQAAGYTFTNYWILWIKQRPRHGLEWIGDIYPGGHYTNYNEKFKGKATLTADTSSSTAYMQLNSLTSEDSAIYYCTRYYGPYAMDYWGQGTSVTVSS
VL: DIVMSQSPSSLPVSVGEKVTMSCKSSQSLLYNSNQKNYLAWYQQIPGQSPKLLIYWASTGESGVPDRFTGSGSGTDFTLTISSVKAEDLAVYYCQQYYSYPFTFGSGTKLEIK
Consider B9, for which, in test [4], the “RLU fold change, NFAT-luciferase reporter, antibody alone” value was determined as 2.3 fold and the “RLU fold change, NFAT-luciferase reporter, with JS001” value came to 2.3 fold.
